Assay results reported in PMC6156451 (Frontiers in Molecular Neuroscience, 2018).
One block for each substance: values may come before it. No end group written: not given here.

Assays:
[1] = target: ROS-GC1 peptide 1 peptide 1 (Bos taurus) (UniProt P55203); assay: fluorescence
[2] = target: myristoylated guanylyl cyclase-activating protein 2 (GCAP-2), bovine (bovine) (UniProt P51177); assay: other fluorescence titration; GCAP-2 mixed with increasing concentrations of peptide in 20 mM HEPES pH 7.5, 20°C; excitation 280 nm, emission 350 nm; calcium not controlled, ~2 uM
[3] = target: myristoylated guanylyl cyclase-activating protein 2 (GCAP-2), bovine (bovine) (UniProt P51177); assay: SPR; GCAP-2 immobilised by amine coupling on 2D CMD sensor slides; peptides injected at 0.5-40 uM (peptide 3: 5-40 uM); 20 mM HEPES, 0.05% Tween, pH 7.5, 22°C, 30 ul/min; two-state model with equimolar binding; calcium not controlled, ~2 uM
GCAP-2 [4] = target: T1, GCAP-2 (Bos taurus, UniProt P51177); assay: Surface plasmon resonance (SPR), GCAP-2/ROS-GC peptide interaction; type: binding, bovine
T1 construct: made in house; host or cells: E. coli BL21 (DE3), vector pET-11a, co-expressed with yeast N-myristoyltransferase I (pBB131)
T1 sequence (P51177 1-204): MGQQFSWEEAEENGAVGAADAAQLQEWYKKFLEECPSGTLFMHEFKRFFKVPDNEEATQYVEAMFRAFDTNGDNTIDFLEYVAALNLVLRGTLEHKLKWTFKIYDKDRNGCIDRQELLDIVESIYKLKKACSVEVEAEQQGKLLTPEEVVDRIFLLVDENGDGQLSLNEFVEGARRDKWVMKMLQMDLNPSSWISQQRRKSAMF

GCAP-2 [5] = target: T1, GCAP-2; assay: Fluorescence spectroscopy titration of ROS-GC peptides to GCAP-2; set-up: species or system bovine; settings: excitation 280 nm, emission 350 nm, 20 mM HEPES pH 7.5, 20°C, calcium ~2 μM, read-out: KD1 (first binding event)
Description: Fluorescence measurements were carried out with a Jasco Spectrofluorometer FP-8200, equipped with a Jasco MCB-100 Mini Circulation Bath (20°C, xenon lamp, data interval 0.5 nm, accumulation number 3). The excitation wavelength was 280 nm, fluorescence emission was recorded at 350 nm to exclude self-fluorescence of non-bound peptide. […] As a negative control, separate recordings were performed with N-acetyl-L-tryptophanamide or N-acetyl-L-tyrosinamide, respectively.
A wavelength of 350 nm was chosen to rule out that changes in fluorescence originate from an increased concentration of non-bound peptide.

Sequence of ROS-GC1 peptide 1 peptide 1 (Bos taurus) (P55203 57-1110): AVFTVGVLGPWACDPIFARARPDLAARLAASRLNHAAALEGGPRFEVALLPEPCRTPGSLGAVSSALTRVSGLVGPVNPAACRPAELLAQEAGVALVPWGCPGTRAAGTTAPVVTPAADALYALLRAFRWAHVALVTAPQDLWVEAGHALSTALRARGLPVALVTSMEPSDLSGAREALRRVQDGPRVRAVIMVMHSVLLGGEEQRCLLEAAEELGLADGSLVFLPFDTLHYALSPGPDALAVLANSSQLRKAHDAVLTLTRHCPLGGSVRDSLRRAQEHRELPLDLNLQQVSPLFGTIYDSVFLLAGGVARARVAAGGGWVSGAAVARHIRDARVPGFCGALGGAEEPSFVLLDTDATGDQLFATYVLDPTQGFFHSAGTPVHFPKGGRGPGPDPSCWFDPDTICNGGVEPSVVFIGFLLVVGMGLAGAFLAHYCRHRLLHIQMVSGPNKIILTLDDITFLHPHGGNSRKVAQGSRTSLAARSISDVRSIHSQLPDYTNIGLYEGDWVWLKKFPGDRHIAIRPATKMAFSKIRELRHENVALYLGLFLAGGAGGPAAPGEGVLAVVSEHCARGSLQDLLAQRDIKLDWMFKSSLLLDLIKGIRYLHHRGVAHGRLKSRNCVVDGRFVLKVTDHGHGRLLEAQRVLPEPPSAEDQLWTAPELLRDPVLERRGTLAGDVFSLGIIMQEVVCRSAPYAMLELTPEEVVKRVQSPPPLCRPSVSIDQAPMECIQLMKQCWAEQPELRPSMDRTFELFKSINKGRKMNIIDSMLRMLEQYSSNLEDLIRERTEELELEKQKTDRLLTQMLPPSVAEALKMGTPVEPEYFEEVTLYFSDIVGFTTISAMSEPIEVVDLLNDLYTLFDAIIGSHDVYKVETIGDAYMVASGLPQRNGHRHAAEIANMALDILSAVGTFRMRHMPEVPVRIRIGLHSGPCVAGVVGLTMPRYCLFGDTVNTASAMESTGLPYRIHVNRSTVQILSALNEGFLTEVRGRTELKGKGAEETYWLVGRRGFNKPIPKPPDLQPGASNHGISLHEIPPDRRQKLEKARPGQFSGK

Kd [1]: 244000 nM
Substance: GCAP-2 (from UniProt P51177)

KD1 (first binding event) [2]: 4.2 µM | KD2 (second binding event) [2]: 244 µM | Kd [3]: 1120 nM
Substance: ROS-GC1 peptide 1 (aa 965-981), postulated GCAP-2 binding motif

KD1 (first binding event; set by extrapolation) [2]: 1 µM | Kd [3]: 3000 nM
Substance: ROS-GC1 peptide 2 (aa 942-981), N-terminal extension of peptide 1 with a part of the catalytic domain

Kd (GCAP-2 [4]): 2360 nM | Kd (GCAP-2 [5]): 4200 nM
Substance: YRIHVNRSTVQILSALN [Peptide 1]
